Earlier results in PMC5432642.

Molecular target: C3b C3b (Homo sapiens) (UniProt P01024)
Sequence (P01024 566-670): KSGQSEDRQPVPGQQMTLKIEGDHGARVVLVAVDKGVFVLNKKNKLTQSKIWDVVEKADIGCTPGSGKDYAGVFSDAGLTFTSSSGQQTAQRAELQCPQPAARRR

Sequence of FH19–20 FH19-20 (P08603 1107-1231): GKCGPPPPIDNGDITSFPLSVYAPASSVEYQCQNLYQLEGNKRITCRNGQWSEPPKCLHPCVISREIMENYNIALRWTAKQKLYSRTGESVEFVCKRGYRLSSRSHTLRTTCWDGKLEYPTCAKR

Kd: 5 µM
Substance: FH19–20 FH19-20 (from UniProt P08603)
